Test results from article PMC12630593.

Experiments:
Assay in all cases: EMSA
NFI-X193 R121P = NFI-X193 R121P (mouse, UniProt P70257 14-193, R121P)
NFI-X193 (NFI-X DBD) = NFI-X193 (NFI-X DBD) (mouse, UniProt P70257 14-193)
NFI-X193 R116P = NFI-X193 R116P (mouse, UniProt P70257 14-193, R116P)
NFI-X193 R116Q = NFI-X193 R116Q (mouse, UniProt P70257 14-193, R116Q)
NFI-X193 K125E = NFI-X193 K125E (mouse, UniProt P70257 14-193, K125E)
NFI-X193 K113E = NFI-X193 K113E (mouse, UniProt P70257 14-193, K113E)
NFI-X193 R115W = NFI-X193 R115W (mouse, UniProt P70257 14-193, R115W)

B1: NFI-31bp Cy5 probe (dsDNA)
DNA 1: GGGTCTCTTTGGCAGGCAGCCAACCAGCAAA
DNA 2: TTTGCTGGTTGGCTGCCTGCCAAAGAGACCC
**Q.** Does B1 bind (NFI-X193 R121P)?
**A.** binds

**Q.** And the Kd (NFI-X193 (NFI-X DBD))?
**A.** 48.1 ± 0.49 nM

**Q.** Does B1 bind (NFI-X193 R116P)?
**A.** no binding

**Q.** Does B1 bind (NFI-X193 R116Q)?
**A.** no binding

**Q.** Does B1 bind (NFI-X193 K125E)?
**A.** no binding

**Q.** Does B1 bind (NFI-X193 K113E)?
**A.** no binding

**Q.** Does B1 bind (NFI-X193 R115W)?
**A.** no binding
